A protein production outcome set (Wang et al. 2014)

Assay: label from the status in PepcDB records
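Note: failed if final PepcDB status was selected cloned or expressed and not failed if soluble or beyond.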

Row | Sequence | protein production
1 | MKVFIIGAAGGIGNRLSSLLHARGDAVSGMHRNLEQASKITDTGATAVLGDLIHNSTEELAELFRGHDAIVFSAGAHGTGQENTTLIDGAGLRKAADAASAANVSRFILVSAFPESSRGENTTENFEHYMKVKKSADVYLSHTDLDWVIVRPGVLQDEAGDGLVTAGLAINYGNVARDNVAAFIDEALHQPQLSKIIVELTDGSTPVAEAVERLIKLEHHHHHH | not failed
2 | FPIPLPYCWLCRALIKRIQAMIPKGALAVAVAQVCRVVPLVAGGICQCLAERYSVILLDTLLGRMLPQLVCRLVLRCSM | failed
3 | MRVDIVPVGDVPAHVKRQASSSLRSVYDCEVVVASEQDVPTAAYDEARSQYRAAEFIDTATRATSGDKTIAITPHDLFYRRRNYVFGLAYLDGRGCVVSTYRLQTSSDGGFSNRSSSDVFDDRVRKEVVHELGHTLGLEHCDNNRCAMNFSPTVREVDRKEENLCGSCQRTVFLEHHHHHH | not failed
4 | MKAIITVVGKDKSGIVAGVSGKIAELGLNIDDISQTVLDEYFTMMAVVSSDEKQDFTYLRNEFEAFGQTLNVKINIQSAAIFEAMYNI | not failed
5 | MDEFDYVRRKLIERILHLTEKQPVVRPLPGLTVGRRESPTEPSTYILPPSICIAVQGAKRVLIGEEYYVYDVENFLLNSFDVPVVAQVIEASKEKPYIGMTWEIDMEILMEIVVEQKLNTRPITSSRGTSLGKVTHQLLDAFRRMLELLDEPEHISALLPVIKKEIIYRLLVSEQGPRL | failed
6 | MVQLIKKYEDLLCLLDELIKNESTFRWDEFYLERERDVPFFVLAPDEQLVEYVCTGLIESGKVLELGCGPGRNAIYLAENHFEVDVVDLSQKAIDWAMDRANERKASIRFIRENIFNLNVNKASYDLVYDSGCFHHIPPHRRMDYIHLVTTALKPGGHFGLTCFIENGPLGGAAISDLDVYRQQSLQGGLGFTEQKLIQIFDDFAVIEIRKMKEYPNDSSRFGVNGLLTALFQKKKVEKVKLEHHHHHH | failed
7 | MTPIHVVGIGLDGLPGLAAAVQQIIDSATLLVGSDRHLQLIPQGDTPRLSLGNFNASLKAIQTHLDTTANPQVVILTSGDPLFYGLGRWLLEVFAPDQLTFHPHLSAVQLAFSRLKLPWQDAVIYSAHGRDLAGLVPLLQRGVEKIAIYTDGEANIAAISRLYQALHIPVTYRAWVCQALGSAEEAILPWDLAQPVTALPPVHPLNLVVLLRQPQRLPPREQPIVGLGDDQFFTFADRPSLMTKREVRVLVLAELALTSTVEIVWDIGAGTGSVAVEIARLAPQATIYAIEKTAIGFQLIERNRRAFGLANLIPLQGTAPQCLRDLPPPDRVFIGGSGAQLLANLDYCWSHLNAGGRLVLAIATLEHQGQVLHWCQTHQINPQVLQVQLSRSVP | failed
8 | MKFLTTNFLKCSVKACDTSNDNFPLQYDGSKCQLVQDESIEFNPEFLLNIVDRVDWPAVLTVAAELGNNALPPTKPSFPSSIQELTDDDMAILNDLHTLLLQTSIAEGEMKCRNCGHIYYIKNGIPNLLLPPHLV | failed
9 | MIAAPFLGLLLGLAALLLLASPWPFLAPLVVVGLFGLALLYRRPGWGLLGICALVPFEGLFKDSAFSGAKLLGASLILIMLFKLLLRQIPDSRLRSNLWRALGPFLLCLLLSMLYSENLLVSLDSLRELAVGLVLFFVTLLIAREVNLLMLCRLLAVSVAITCVIALVSAKYQVGGRAIGLLQDANYFALLIAMAVPPAIFLALRSPHWPVRLFWVGISLTLMAGMTKTDSRSGLLVVLFTIAIGVWHYRDRLKGLRPKHLGFAMFAVAIVIPLGIAVLPAEYVARIQSLSMLKSGAHSADTSLGRRTSYLVVGGQMIRQNPLLGSGLGTFPIHYAQTGFASSFSENMNEPDLFRRAHNTYLELFSELGIPGGLSFVALMLMGLRNFERARQGFLARGQREQADIATHLGLSLLAMAVFLLFLSAPNHKYLWIFLALSSVLRLQAEDAPVPRPAPA | failed
10 | MTTHITKAPAYWSRDAIWPGIVAVGPMLPGTLAFGMAFGALCAQKNFTLAEVEVMMATVYGGLSQFVAVQAWPDQLTPSTIAALALLTTTVNIRFFLMTASMRPWFGTLPAWQAYPPLLLVTDGGWLAAMRYREHGGANAWFYLGGALVLYLVWLVSAIPGFLLAEQLADPKKFGVDIAMPAFFAALLVPAWKGPRRAIPWLVSGIVALTVHWLIPGYWFIIAGALSGAITAGLMDEPPVATSHAGHSS | failed
11 | MRLLSSPINRGFFDYVELYPSLVSSYFPPPDRPSAVLSVGETRYVNSVKQTASLDSLNDYEEQFPPLTGGSKTKKFYLGSTNPSTPCQSSQLQNWTSGKDALSLQRNLGCKNRRRRRASRFLHEESNGTTFEVGAGIGSPTSMVHFDSTNPSSSSKSSQSQNLKIRKVRNHRNSGFKSRDQSPQRIKDPPPFDICSSVLERNDTSIKDWILADETNRETVEVSNKHKVIRPGMVLLKDFLTPDIQVDIVKTCRELGVKPTGFYQPGYSVGSKLHLQMMCLGRNWDPQTKYRKNTDIDSKAPEIPVTFNVLVEKAIREAHALIDRESGTEDAERILPVMSPDICIVNFYSETGRLGLHQDRDESEESIARGLPIVSFSIGDSAEFLYGEKRDVEEAQGVILESGDVLIFGGESRMIFHGVKSIIPNSAPMSLLNESKLRTGRLNLTFRHF | failed
12 | MASLAAVVRALLRRESQRATGYALREWTMLTARHLPYLQGQLTLGRIAAVGHLQRSTLGRSEWHTSSAPLFGEGRGRWHWGLSTSDVVDGSDHEHHSTETGGRELPSFKTGELGSDVDGDRAALEAWLAQIRDETSGWPELSLDALRDELDEELEGDDDDNDDDDDETYENEELLKALQEAVNRHRTPVVALVSGRVVHLRRTAAPKRSPRAGRVPRNEPQTTSRDTTKADANDNECT | not failed
13 | MKKINSAVLSIASNSMLIIFKLTAGITMNSISVLSEGVHSSIDLIASLIAFFSIKKSSLKEDDDHPFGHGKYENVSGFVEAILIMFAAIMIIYEAFNKLVSNSHVKNIDSGIYIMLISSAVNLFISIILLKSSKDTNSIALEADGMHLFTDFFTSLGVFLGLVLLKLTNIKIIDSITAFLVAILIIKTAVDLIKKSLRDLVDSSLDKDDINKIVKIVKKYPNIKEYHKLRTRRCGNTREIDIHIQIVGTDSLKETHDICSSIEDEIRRVFPDSCTVIHAEPYIEKFHKKSLT | failed
14 | MLSKNNFNEKLMQMNNQKAHFSIRKLTIGAASVLIGITFMGINGQTVNADEMTGNTQPEAMQVSTDKSTDATTTQQNDSDSSAQKNAAQTVEVPQNSKQDNTGETSQSTTDKKDTQVQKTESSETKADTAQSQVPPAANQTQKSADQNVENTQSPVASNTTQPKTQNDSKYNVADWGGSLNDETHEYTLNKYNGSDKENIYIPNTEDFIKAGKITDIDKVFITKDLIQNITKNGATSIVIDDQGSEDKNKVYAKGDWSNAFAGSTKLKSVDLSHLDTSQVTSMAGAFNGDTGLNDANLSGWNIQNMTNLSSLFYGANNLYNVDMSGWNFINNPNTNSMFSYADYNLKSVNLKNAKNVTDDILRIYARAIKNSNATTADLSDINLSPNVTSLHGLFSNMPDLKNVNLSGLDISHITDMGGMFSGDSNLESLDLSGLDLSKVTNTNNMFDWVGGKIKSVNITNTKSIPRSILDIYLKALSNTGTTTVDLSGINLSPNVTSLHGLFANMPNLGSANLSGLDISHITDMGGMFFNDTSLKSVNLSGLNLEKVKDLSTMFYGANNLENVDFSNTKFAPDANTNVMFAFADTKLQSVNINGTKNITREVLDAVIRAAKNSNATTLDLSGVSFSPSITSFNNLFSNMPNIESIDLTGWDTSHITDMSYMFFNDPKLKIIKGLEDFNTSNVTNMAYMFAAFNNPTTDNYDPKGLESLGHLTKLDLSNWDTSNVTNMLYMFAGQTNLTSLGDLSKWNTSKVTNMAYMFYDLKNIDDGKLDLTGWDTSNVTDMSYMFFNMFLQKDLSFVNDWNTGKVTDMSYMFANDKNLEKLDLSKWDVSSVGLKHTEQNYSLAMMFAGDTSLTTVGDISHWNTKNVHDTRQMFYNTPKLTNIDLSGWNTGKLQIAEGMFNSSGAKQINLDNWDLSNIKRITPAGYVEGKAGVGVLRGVENMFKNLTNPAVISMNKVILPDARNAFEINDFEGNKAIVVIANGQNGEALQDLLKINNQTWTDKSGNNVTGRQNSDYVTYVRADDNSNQIGQRGLNFIFTNLDDLHQYFNQVTNADNVKNDIGELSHDWDAQQDTDNNIVKITLRLSPASSYDPYSENIHAEKDGNILADLMTSKYQLHIVAPTNTTETKKPTRTIIIENPDGTTSTKEQTVEFKREVTKHVDGTEEATSWTPTSGEWTKFDVPQIAGYDSYVDGTQSKSVASEPVNKDTENVTVVITYKSNAVNPEPIIPDPVKPEVDPDKKDPQEPKTDPVTPTPDEPENPKPEKKPSNPDKRKDDNSKVVKPHGENKAAKKNHSSVEHKKTGTHTIKLSHRVAPKGTQATNGSKKSTSTVNKAADNNKNTLPQTGEKKSNAGLIGLALIALASLGLIDRKRRD | failed
15 | MDKTKRKMIYETFMLILILLSLALLPYRNNFTFILNWIIWVIFTLDYLVRLYRADNKWHYVKTHPFQLIAIIPFYGGFRAARIVSFVHLLSITAMGRRYIVPIYSFFRSNGLNRFLMIFVLLVIIIPVPMVFIEPEINNYPDALWWAIVTATTVGYGDIVPVTPIGRILASIMMLFGIAFIGMITSTITNFFRAKKPTNSSTQRANKITQLISETPDLTKEEIAVVEQFLTLRKKELADENTKSDSE | failed
16 | MRNRTLADLDRVVALGGGHGLGRVLSSLSSLGSRLTGIVTTTDNGGSTGRIRRSEGGIAWGDMRNCLNQLITEPNVASAMFEYRFGGNGELSGHNLGNLMLKALDHLSVRPLEAINLIRNLLKVDTHLIPMSEHPVDLMAIDDQGHEVYGEVNIDQLTTPIQELLLTPNVPATREAVHAINEADLIIIGPGSFYTSLMPILLLKEIAQALRRTPAPMVYIGNLGRELSLPAANLKLESKLAIMEQYVGKKVIDAVIVGPKVDVSAVKERIVIQEVLEASDIPYRHDRQLLHNALEKALQALGLEHHHHHH | failed
17 | MNKFIKYFLILLSFGLLVVPIIFATQLYQSSESAFESSQNTKDSQRKSTLRDSKVDPEKQPISILFLGIDDNEGREKNGQSVEHSRSDAMILSTFNQKKHQIRMLSIPRDTISYIPKVGYYDKITHAHAYGGPLAAMDSVEATMNVPVDYYVRINMKAFVEAVDELGGIYYDVPYNLNEPNSDDTGRIKIKKGYQKLNGDQALAVARTRHHDSDLKRGQRQMELIKILFQKAQNLKSIDKLDNVISIVGKNAKHNLTQKEIKSLAKMYLGGSTEIKTSQLKGKDDYLNDIYYYHPSVKSIMEYSNLLRNDLDLSKITNKNDFLDQRVIKRYGSLVPLTELDEDLLRKNQKESTDSQKESDSSSQNNDEEDQTNEQTDQNSLNGNEQYPNQQDNNQTNGENGMINNDNYPYAQ | failed
18 | MSSKIDALKITVLSLSLCFSVSSLSATVNKTVKQKKNVIYILTDDQRYDEVGFLNPRIDTPNMDKLAAGGVYFKNAFVTTALCSPSRATILTGQYMHNHGVVDNNNPAKESSVYFPSYLQEVGYETSFFGKWHMGGHGDSPQPGFDHWLSFAGQGHYYPKKDKKGRTNKININGERVDQKGYITDELTDYAVDWLDKRDSDKPFFMYLSHKAVHSNFDPAPRHKDQYSDVAIEVPESQADTPENYAGKPMWVKNQRNSWHGVDFPYHSEMDVQEYKRQYHRALSAVDDSLGRVLKWLKDNNLENDTIVMLMGDNGFMFGEHGLIDKRNAYEESMRVPLLAYAPGYFKPGTVVDEMVANLDIAPTILEIAGAKKPAHFDGDSWLPLAKNKEVNQWRENFLYEYYWEFNYPSTPTTFALRTDNYKLIQYHGVWDTEELYDLKNDPKEMNNLINTPKHQPLIAQMRHDLFNLLVNKKGDNVIPYTEKYTPGAVYRERDRGETADFPDNWLKKEGDDGLRTFLRIKPIKDKKDDKKKSAKH | failed
19 | KVDKKTYKNLIVELQQRMREIQFALYERKIPLVLVFEGMDAAGKGGNIKRIREKLDPTGYEVNGISAPTDVELKHHYLWRFAKKMPKSGHIEIFDRSWYGRVLVERVEGFASQNEWQRASDEINQFEKMWTDEGTIILKFFLCLDKDEQLKRFKDRENNPDKQWKITEEDWRNREKWDEYLEASHDMIESTNTSYAPWYIVPADHKKTSRIEVLKTIIRKCEEVLWGVKTY | failed
